From PMC7840601

Key:
[1] = target: human C3b (CompTech) (human); test: SPR; 300 RU human C3b amine-coupled on a CM5 chip; FH1-4 WT or variant injected in duplicate at up to 40 uM; Biacore X100, 25 C, 30 ul/min, 10 mM HEPES-buffered saline, 3 mM EDTA, 0.05% surfactant P20; steady-state affinity model
[2] = target: human C3b (CompTech) (human)

Substance | KD as a ratio of the KD of WT FH1-4 [1] [x WT] | cofactor activity for FI-mediated cleavage of C3b on sheep erythrocytes, IC50 as a multiple of WT FH1-4 [2] [x WT] | decay acceleration of the C3 convertase (C3bBb) on sheep erythrocytes, IC50 as a multiple of WT FH1-4 [2] [x WT]
FH1-4 A161S (from UniProt P08603 19-263) (domain or fragment) | 0.97 |  | 
FH1-4 D130N (from UniProt P08603 19-263) (domain or fragment) | 1.44 |  | 
FH1-4 G69E (from UniProt P08603 19-263) (domain or fragment) | 1.2 |  | 

Results, then the substance that gave them:

KD as a ratio of the KD of WT FH1-4 [1] [x WT] | cofactor activity for FI-mediated cleavage of C3b on sheep erythrocytes, IC50 as a multiple of WT FH1-4 [2] [x WT] | decay acceleration of the C3 convertase (C3bBb) on sheep erythrocytes, IC50 as a multiple of WT FH1-4 [2] [x WT] | Substance
1.23 |  |  | FH1-4 M162V (from UniProt P08603 19-263) (domain or fragment)
 | 11 | 25.1 | FH1-4 Q81P (from UniProt P08603 19-263) (domain or fragment)
1.2 |  |  | FH1-4 S159N (from UniProt P08603 19-263) (domain or fragment)
